# Bridges are numbered along the chain shown (N, C = ends). Where no end group is shown, it is not given here.
# B1: cyclized peptide (CLSADSSGSYLYVC) (SEQ ID NO:32) (peptide)
# peptide: CLSADSSGSYLYVC
# modifications: disulfide 1-14
# notes: also called cyclized experimental peptide; experimental peptide
# B2: peptide 2 (LSADSSGSYLYVF (SEQ ID NO:2)), cyclized (peptide)
# peptide: CLSADSSGSYLYVFC
# modifications: disulfide 1-15
# notes: Built from the words 'cyclized by adding cysteine residues to the amino and carboxyl-terminal portions of the peptides'; also called cyclized peptide 2
# What was measured:
# [1] = target: T1, human Tamm-Horsfall protein (human, UniProt P07911 25-587); test: competitive ELISA (FIG. 7)
# Source text: Mutation of the CDR3 sequence to disrupt the loop structure by substituting amino acid residues with phenyalanine confirmed that the secondary structure was an important determinant of binding (FIG. 6). The inhibitory capability of cyclized experimental ([…] (SEQ ID NO:32)) and control ([…] (SEQ ID NO:33)) peptides were then compared in a competitive ELISA assay. The experimental peptide served as a very efficient inhibitor of the binding interactions between the human Tamm-Horsfall protein and six different human immunoglobulin light chains (FIG. 7).
# [2] = target: T1, human Tamm-Horsfall protein; test: competitive ELISA; light chains bound in the wells, Tamm-Horsfall protein in solution, linear peptide as inhibitor
# Source text: (§1) Peptides known to react with the Tamm-Horsfall protein in the yeast two-hybrid assay were synthesized, cyclized, and used as inhibitors in a competitive ELISA experiment. The peptides were cyclized by adding cysteine residues to the amino and carboxyl-terminal portions of the peptides and generating an intramolecular disulfide bridge (FIG. 4). Cyclization facilitates formation of the loop structure in solution. Both the linear and cyclized peptides inhibited the binding of the Tamm-Horsfall protein to the immunoglobulin light chains bound in the wells of the microtiter plate, but the efficiency of inhibition was increased by cyclization of the peptide inhibitor.
# [3] = target: T1, human Tamm-Horsfall protein; test: competition studies for binding to Tamm-Horsfall protein
# [4] = target: T1, human Tamm-Horsfall protein; test: competitive ELISA; light chains bound in the wells, Tamm-Horsfall protein in solution, cyclized peptide as inhibitor
# Source text: as §1
binder,measurement,setting,value
B1,binding result,[1],binds
"QSYDNTLSGSYVF (also called uncyclized peptide 1) [peptide 1 (QSYDNTLSGSYVF (SEQ ID NO:1)), linear]",IC50,[2],55 nM
MQGTHWPPLT (also called SSH23 CDR3 peptide) [synthetic peptide (MQGTHWPPLT (SEQ ID NO:3)) identical to the CDR3 region of SSH23],binding result,[3],binds
B2,IC50,[4],24 nM
"LSADSSGSYLYVF (also called uncyclized peptide 2) [peptide 2 (LSADSSGSYLYVF (SEQ ID NO:2)), linear]",IC50,[2],90.9 nM
